The values that follow come from article PMC3912200, “Structural and Functional Characterization of Cargo-Binding Sites on the μ4-Subunit of Adaptor Protein Complex 4” (PLoS ONE, 2014).

The experiment relates to cytosolic tail of APP. Kind of experiment: Yeast two-hybrid (Y2H) analysis of μ4 with the APP tail. As to conditions: growth on -His plates, 30°C; for effect of mutation on binding to the APP YKFFE signal (Y2H): mutations at μ4-binding site. The format is binding. The text has this: The cloning of the tail of APP (residues 649–695), full-length human μ4, and all the other yeast two-hybrid (Y2H) constructs, and the cloning of the C-terminal domain of μ4 for expression in E. coli was described previously. To generate a construct for mammalian expression, full-length human μ4 was obtained by PCR amplification and cloned into the EcoRI and SalI sites of pEGFP-N1 (BD BiosciencesClontech, Mountain View, CA) including a stop-codon before the GFP coding sequence. The cloning of APP-GFP carrying the double mutation F615P/D664A was described previously. Single amino acid substitutions were introduced using the QuikChange mutagenesis kit (Stratagene, La Jolla, CA). Y2H assays were performed as previously described. A set of pCI-neo (Promega) constructs encoding hemagglutinin (HA)-epitope tagged wild-type or mutants of human μ4 was a generous gift of J. Bonifacino and R. Mattera (Cell Biology and Metabolism Program, NICHD, NIH). The nucleotide sequences of all recombinant constructs were confirmed by dideoxy sequencing.
Figure 1 Yeast two-hybrid analysis of the interaction of μ4 with the cytosolic tail of APP. (A) Superposition of the surface and ribbon representations of human wild-type μ4 C-terminal domain (pdb entry 3L81). The insets show an enlargement of the μ4-binding site and the putative μ2-binding site with residues chosen for the yeast two-hybrid (Y2H) analysis. The APP peptide (TYKFFEQ; stick model) bound to the μ4-binding site is in yellow, and the EGFR peptide (FYRALM; stick model; pdb entry 1BW8) superposed to the putative μ2-binding site is in magenta. (B) Sequence alignment of the C-terminal domain of the μ subunits of known crystal structure depicting critical residues at the corresponding μ2- and μ4-binding sites. Disordered loops are in yellow letters, and arrows and cylinders represent β-strands and α-helices, respectively. M.m., Mus musculus; R.n., Rattus norvegicus; H.s., Homo sapiens. (C) and (D) Yeast were co-transformed with plasmids encoding Gal4bd fused to the cytosolic tail of the amyloid precursor protein (APP) indicated on the left, and Gal4ad fused to wild-type or mutant μ4 constructs indicated on top of each panel. (C) Y2H analysis of μ4 with mutations on the YKFFE binding site (μ4-binding site). (D) Y2H analysis of μ4 with mutations on a putative YXXØ binding site (μ2-binding site). Mouse p53 fused to Gal4bd and SV40 large T antigen (T Ag) fused to Gal4ad were used as controls. Co-transformed cells were spotted onto His-deficient (-His) or His-containing (+His) plates and incubated at 30°C. Growth is indicative of interactions. Some mutations on either of the two sites affect the interaction of μ4 with the cytosolic tail of APP.

B1: R441A: μ4 mutant, μ2-binding site, Y2H construct (protein)
chain: MISQFFILSSKGDPLIYKDFRGDSGGRDVAELFYRKLTGLPGDESPVVMHHHGRHFIHIRHSGLYLVVTTSENVSPFSLLELLSRLATLLGDYCGSLGEGTISRNVALVYELLDEVLDYGYVQTTSTEMLRNFIQTEAVVSKPFSLFDLSSVGLFGAETQQSKVAPSSAASRPVLSSRSDQSQKNEVFLDVVERLSVLIASNGSLLKVDVQGEIRLKSFLPSGSEMRIGLTEEFCVGKSELRGYGPGIRVDEVSFHSSVNLDEFESHRILRLQPPQGELTVMRYQLSDDLPSPLPFRLFPSVQWDRGSGRLQVYLKLRCDLLSKSQALNVRLHLPLPRGVVSLSQELSSPEQKAELAEGALRWDLPRVQGGSQLSGLFQMDVPGPPGPPSHGLSTSASPLGLGPASLSFELPRHTCSGLQVRFLRLAFRPCGNANPHKWVAHLSHSDAYVIRI
modifications: left off: Gal4 activation domain, end not stated, kept
For B1, the “effect of mutation on interaction of the APP tail with μ4 (Y2H)” value (mutations at μ2-binding site) was “little or no effect”.

B2: F264A: μ4 mutant, μ4-binding site, Y2H construct (protein)
chain: MISQFFILSSKGDPLIYKDFRGDSGGRDVAELFYRKLTGLPGDESPVVMHHHGRHFIHIRHSGLYLVVTTSENVSPFSLLELLSRLATLLGDYCGSLGEGTISRNVALVYELLDEVLDYGYVQTTSTEMLRNFIQTEAVVSKPFSLFDLSSVGLFGAETQQSKVAPSSAASRPVLSSRSDQSQKNEVFLDVVERLSVLIASNGSLLKVDVQGEIRLKSFLPSGSEMRIGLTEEFCVGKSELRGYGPGIRVDEVSFHSSVNLDEAESHRILRLQPPQGELTVMRYQLSDDLPSPLPFRLFPSVQWDRGSGRLQVYLKLRCDLLSKSQALNVRLHLPLPRGVVSLSQELSSPEQKAELAEGALRWDLPRVQGGSQLSGLFQMDVPGPPGPPSHGLSTSASPLGLGPASLSFELPRHTCSGLQVRFLRLAFRPCGNANPHKWVRHLSHSDAYVIRI
modifications: left off: Gal4 activation domain, end not stated, kept
Regarding B2, the “effect of mutation on binding to the APP YKFFE signal (Y2H)” value (from here on “effect of mutation on binding”) is “drastically reduced”.

B3: L261K: μ4 mutant, μ4-binding site, Y2H construct (protein)
chain: MISQFFILSSKGDPLIYKDFRGDSGGRDVAELFYRKLTGLPGDESPVVMHHHGRHFIHIRHSGLYLVVTTSENVSPFSLLELLSRLATLLGDYCGSLGEGTISRNVALVYELLDEVLDYGYVQTTSTEMLRNFIQTEAVVSKPFSLFDLSSVGLFGAETQQSKVAPSSAASRPVLSSRSDQSQKNEVFLDVVERLSVLIASNGSLLKVDVQGEIRLKSFLPSGSEMRIGLTEEFCVGKSELRGYGPGIRVDEVSFHSSVNKDEFESHRILRLQPPQGELTVMRYQLSDDLPSPLPFRLFPSVQWDRGSGRLQVYLKLRCDLLSKSQALNVRLHLPLPRGVVSLSQELSSPEQKAELAEGALRWDLPRVQGGSQLSGLFQMDVPGPPGPPSHGLSTSASPLGLGPASLSFELPRHTCSGLQVRFLRLAFRPCGNANPHKWVRHLSHSDAYVIRI
modifications: left off: Gal4 activation domain, end not stated, kept
For the molecule B3, the “effect of mutation on binding” value is listed as “completely abolished”.

B4: E265R: μ4 mutant, μ4-binding site, Y2H construct (protein)
chain: MISQFFILSSKGDPLIYKDFRGDSGGRDVAELFYRKLTGLPGDESPVVMHHHGRHFIHIRHSGLYLVVTTSENVSPFSLLELLSRLATLLGDYCGSLGEGTISRNVALVYELLDEVLDYGYVQTTSTEMLRNFIQTEAVVSKPFSLFDLSSVGLFGAETQQSKVAPSSAASRPVLSSRSDQSQKNEVFLDVVERLSVLIASNGSLLKVDVQGEIRLKSFLPSGSEMRIGLTEEFCVGKSELRGYGPGIRVDEVSFHSSVNLDEFRSHRILRLQPPQGELTVMRYQLSDDLPSPLPFRLFPSVQWDRGSGRLQVYLKLRCDLLSKSQALNVRLHLPLPRGVVSLSQELSSPEQKAELAEGALRWDLPRVQGGSQLSGLFQMDVPGPPGPPSHGLSTSASPLGLGPASLSFELPRHTCSGLQVRFLRLAFRPCGNANPHKWVRHLSHSDAYVIRI
modifications: left off: Gal4 activation domain, end not stated, kept
Consider B4, for which the “effect of mutation on binding” value is given as “completely abolished”.
